The text below walks through data of patent US20160208003A1 (AFFITECH RESEARCH, published 2016).

Residue numbers refer to the chain shown, from its start. Several values for one entry are separate records, joined by “and”; a condition that tells them apart may be missing. Identical values can stand only once.

Broadly, the Kd is the concentration at which binding is half-saturated. For orientation: IC50 means the point on the concentration scale where inhibition reaches its midpoint.

For test [1], the target named is T1, human CC chemokine receptor 4 (CCR4) (human, UniProt P51679 1-360).
T1 construct: whole, on cells; Always presented on cells; also called CD194; human CCR4
T1 sequence (looked up): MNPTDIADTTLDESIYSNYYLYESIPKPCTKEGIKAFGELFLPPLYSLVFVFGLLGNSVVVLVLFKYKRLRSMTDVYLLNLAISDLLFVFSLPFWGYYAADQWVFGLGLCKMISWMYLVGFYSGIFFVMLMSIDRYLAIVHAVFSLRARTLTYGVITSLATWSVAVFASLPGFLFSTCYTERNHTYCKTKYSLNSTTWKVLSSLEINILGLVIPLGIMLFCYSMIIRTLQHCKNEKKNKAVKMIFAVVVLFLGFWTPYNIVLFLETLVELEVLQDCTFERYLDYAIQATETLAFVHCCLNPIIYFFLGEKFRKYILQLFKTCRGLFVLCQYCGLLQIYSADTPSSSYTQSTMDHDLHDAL
The experiment in a line: calculated from the IC50; CCRF-CEM cells, competitor biotinylated MDC. The procedure: (§1) The competition binding assays were performed with biotinylated MDC or biotinylated TARC on DT-40-CCR4+ and CCRF-CEM cells. DT40 and CCRF-CEM cells were cultured as described in Example 2. TARC and MDC were biotinylated using standard procedures. The biotinylation process causes some losses, so the concentrations of biotinylated MDC and TARC recited herein are approximate.
(§2) The cells were harvested from culture flasks, washed 2 times with PBS (400×g, 5 min, 4° C.) and resuspended in PBS containing 0.2% BSA and 0.09% NaN3. 1×10^5 cells per well were aliquoted into V-shaped 96-well plates (Greiner Bio-One, Frikenhausen, Germany). Cells were centrifuged (400×g, 5 min, 4° C.) and resuspended in 50 μl IgG, single chain or unlabeled ligand (1:10 dilution series starting on 100/500/26, 4 μg/ml) mixed with a fixed concentration of biotinylated ligand (10 or 20 nM, see legend to FIG. 24). The cells were incubated for 2 hours at 4° C. and mixed with a pipette every 45 min. The cells were washed three times with 150 μl PBS with 0.2% BSA and 0.09% NaN3 and stained with 3 μg/ml streptavidin PE (BD Biosciences) for 45 minutes at 4° C. […] Apparent binding affinities (KD) were calculated according to the following equation derived from previously described methods (Kipriyanov et al, 1997b; Schodin & Kranz, 1993): […]

In test [2] the target is T1, human CC chemokine receptor 4 (CCR4). The experiment in a line: calculated from the IC50 (KD=IC50/(1+[bio-MDC]/KD MDC)); DT-40-CCR4+ cells, competitor biotinylated MDC.
The target is the same in test [3]. The experiment in a line: flow cytometry competition on DT-40-CCR4+ cells; IgG titrated, competitor biotinylated TARC (ca. 20 nM). The procedure:
as §1, §2
(In general: In flow cytometry, cells or beads pass a laser one at a time.)

For test [4] the target is unchanged. The experiment in a line: flow cytometry competition on CCRF-CEM cells; IgG titrated, competitor biotinylated MDC (ca. 10 or 20 nM); second of three IC50 values on CCRF-CEM cells; inhibition of biotinylated MDC. The procedure: as §1, §2
For test [5] the target is unchanged. The experiment in a line: flow cytometry, IgG titration on CCR4+ DT40 cells; one site-specific binding fit (Prism). The procedure:
The IgG forms of antibodies 17G, 9E and KM3060var using various CCR4⁺ cell types were used (see Example 2).
For the flow cytometry experiments, the cells were harvested from the culture flasks, washed 2 times with PBS, re-suspended in PBS with 0.2% BSA and 0.09% NaN₃ and finally aliquoted 1×10⁵ cells per well into V-shaped 96-well plates (Greiner Bio-One, Frickenhausen, Germany). Cells were centrifuged at 400×g for 5 min and then incubated at 4° C. for 45 min with different antibody dilutions.
After washing with PBS with 0.2% BSA and 0.09% NaN₃, the cells were stained with 10 μg/ml of RPE-conjugated goat anti-human IgG (AbDSerotec, Düsseldorf, Germany) for 30 minutes at 4° C. The stained cells were washed, re-suspended in 200 μl PBS with 0.2% BSA and 0.09% NaN₃ and transferred to a U-shaped 96-well plate (Corning, Schiphol-Rijk, The Netherlands) for acquisition on EasyCyte flow cytometer (Guava Technologies, Hayward, Calif., USA).

For test [6] the target is unchanged. The experiment in a line: competition flow cytometry on CCR4-transfected DT40 cells: unlabelled IgG against 7 nM biotinylated 9E IgG, streptavidin-RPE. The procedure:
To analyze the epitope binding of anti-CCR4 antibodies 17G, 9E and KM3060var, competition experiments were performed using flow cytometry. The binding of biotinylated antibodies to CCR4 transfected DT40-cells was challenged in the presence of different concentrations of non-biotinylated anti-CCR4 antibodies. The CCR4⁺ DT40 cells were harvested from culture flasks, washed 2 times with PBS, re-suspended in PBS with 0.2% BSA and 0.09% NaN₃ and finally aliquoted 1×10⁵ cells per well into V-shaped 96-well plates (Greiner Bio-One, Frickenhausen, Germany). Cells were centrifuged at 400×g for 5 min and then incubated at 4° C. for 3-4 hours with fixed amounts of biotinylated IgG and different concentrations of non-biotinylated antibodies. After washing with PBS with 0.2% BSA and 0.09% NaN₃, the cells were stained with 2.5 μg/ml of Streptavidin—RPE (BD Pharmingen, San Diego, Calif., USA) for 30 minutes at 4° C. The stained cells were washed, re-suspended in 250 μl PBS with 0.2% BSA and 0.09% NaN₃ and transferred to a U-shaped 96-well plate (Corning, Schiphol-Rijk, The Netherlands) for acquisition on EasyCyte flow cytometer (Guava Technologies, Hayward, Calif., USA). The results shown in FIGS. 10 A, B and C illustrate that the 17G and 9E antibodies have epitopes that are identical or at least overlapping.

B1: 9E10J IgG (full length human IgG1, lambda) (antibody, V domains shown)
VH: QVQLVQSGAEVKKPGSSVKVSCKASGGTFSSYAISWVRQAPGQGLEWMGGIIPIFGTANYAQKFQGRVTMTRDTSTSTVYMELSSLRSEDTAVYYCARRGGSYFDYWGQGTLVTVSS
VL: SYVLTQPPSASGTPGQSVTISCSGSTSNIGSHYVFWYQQLPGTAPRLLIYRNHQRPSGVPDRLSGSKSGTSASLAISGLRSEDEADYYCAVWDDTLSGWVFGGGTKLTVLG
notes: also called IgG 9E10J; unmodified 9E10J
In the case of B1, the Kd in test [1] was 0.2 nM; in test [2], 0.01 nM. For the same molecule, the IC50 in test [3] is 0.26 nM and 0.4 nM; in test [4] it was 6.28 nM.

B2: 9E IgG (full length human IgG1, lambda) (antibody, V domains shown)
VH: B1 VH with S31N, M70I, R72A, T74E, V79A
VL: B1 VL
notes: also called IgG 9E; IgG1 9E
With B2, the Kd in test [5] is 0.72 nM. Also, in test [6], the “IC50 (read off the curve)” value is approximately 3 nM.
